Assay results as given in US20150218286A1.

Target: CD22 (human) (UniProt P20273)
Experiment: cell-based or functional assay

Row | Substance | LC50, 697 cells (ALL), second series [ng/mL] | LC50, EU cells (ALL), second series [ng/mL] | LC50, KOPN 8 cells (ALL), second series [ng/mL] | LC50, NALM 6 cells (ALL), second series [ng/mL] | LC50, RAJI cells (Burkitt), second series [ng/mL] | LC50, REH cells (ALL), second series [ng/mL] | LC50, 697 cells (ALL) [ng/mL] | LC50, EU cells (ALL) [ng/mL] | LC50, KOPN 8 cells (ALL) [ng/mL] | LC50, NALM 6 cells (ALL) [ng/mL] | LC50, RAJI cells (Burkitt) [ng/mL] | LC50, REH cells (ALL) [ng/mL]
1 | HA22-LR-8X | 1 | 0.3 | 0.4 | 2 | 0.2 | 0.5 | – | – | – | – | – | –
2 | HA22-LR-KDEL | – | – | – | – | – | – | 0.2 | 0.3 | 0.3 | 1 | 0.2 | 0.2
